The values below come from publication PMC9163188, “USP53 plays an antitumor role in hepatocellular carcinoma through deubiquitination of cytochrome c” (Oncogenesis, 2022).

Assay [1] deals with T1, Flag-USP53 (of the GST pull-down) (UniProt Q70EK8 1-1073).
T1 construct: ubiquitin-specific peptidase 53 (USP53); If it came from transfected HEK-293T cells it would be the same construct as m1
T1 sequence (looked up): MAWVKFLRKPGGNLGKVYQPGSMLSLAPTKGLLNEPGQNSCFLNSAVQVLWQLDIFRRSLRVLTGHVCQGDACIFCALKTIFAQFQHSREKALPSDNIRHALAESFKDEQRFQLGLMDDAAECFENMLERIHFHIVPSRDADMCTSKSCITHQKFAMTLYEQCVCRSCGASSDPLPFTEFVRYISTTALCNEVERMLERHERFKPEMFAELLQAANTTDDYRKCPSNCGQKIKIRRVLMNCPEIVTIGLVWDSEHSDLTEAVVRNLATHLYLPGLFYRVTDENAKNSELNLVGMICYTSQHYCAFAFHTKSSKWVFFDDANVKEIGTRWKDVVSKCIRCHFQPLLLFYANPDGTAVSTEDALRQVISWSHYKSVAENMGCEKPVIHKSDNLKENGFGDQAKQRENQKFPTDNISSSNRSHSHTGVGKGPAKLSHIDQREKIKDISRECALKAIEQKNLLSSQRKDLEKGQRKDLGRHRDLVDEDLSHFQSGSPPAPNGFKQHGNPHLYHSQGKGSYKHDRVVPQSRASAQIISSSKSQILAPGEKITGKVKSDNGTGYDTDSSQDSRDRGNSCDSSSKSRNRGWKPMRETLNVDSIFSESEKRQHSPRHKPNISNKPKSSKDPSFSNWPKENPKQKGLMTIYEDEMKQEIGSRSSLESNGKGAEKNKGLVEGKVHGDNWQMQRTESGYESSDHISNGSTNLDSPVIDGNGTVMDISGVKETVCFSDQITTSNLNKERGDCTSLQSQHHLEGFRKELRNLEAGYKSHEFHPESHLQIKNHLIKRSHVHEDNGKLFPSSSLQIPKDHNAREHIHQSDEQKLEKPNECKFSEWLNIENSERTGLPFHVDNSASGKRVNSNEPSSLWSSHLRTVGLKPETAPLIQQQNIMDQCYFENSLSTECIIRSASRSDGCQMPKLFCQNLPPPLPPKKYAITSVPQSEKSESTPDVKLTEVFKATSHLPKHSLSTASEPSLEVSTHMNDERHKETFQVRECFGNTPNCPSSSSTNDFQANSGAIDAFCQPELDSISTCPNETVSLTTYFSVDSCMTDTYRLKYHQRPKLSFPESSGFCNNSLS
As to the kind of experiment: pull-down; purified GST-HA-CYCS on glutathione agarose, Flag-USP53 added; same method as for GST-HA-USP53 with Flag-CYCS. The note with it: both partners purified.

Assay [2] deals with T2, GST-HA-USP53 (UniProt Q70EK8 1-1073).
T2 construct: also called GST-HA-USP53 fusion protein; source: E. coli, purified
T2 sequence (looked up): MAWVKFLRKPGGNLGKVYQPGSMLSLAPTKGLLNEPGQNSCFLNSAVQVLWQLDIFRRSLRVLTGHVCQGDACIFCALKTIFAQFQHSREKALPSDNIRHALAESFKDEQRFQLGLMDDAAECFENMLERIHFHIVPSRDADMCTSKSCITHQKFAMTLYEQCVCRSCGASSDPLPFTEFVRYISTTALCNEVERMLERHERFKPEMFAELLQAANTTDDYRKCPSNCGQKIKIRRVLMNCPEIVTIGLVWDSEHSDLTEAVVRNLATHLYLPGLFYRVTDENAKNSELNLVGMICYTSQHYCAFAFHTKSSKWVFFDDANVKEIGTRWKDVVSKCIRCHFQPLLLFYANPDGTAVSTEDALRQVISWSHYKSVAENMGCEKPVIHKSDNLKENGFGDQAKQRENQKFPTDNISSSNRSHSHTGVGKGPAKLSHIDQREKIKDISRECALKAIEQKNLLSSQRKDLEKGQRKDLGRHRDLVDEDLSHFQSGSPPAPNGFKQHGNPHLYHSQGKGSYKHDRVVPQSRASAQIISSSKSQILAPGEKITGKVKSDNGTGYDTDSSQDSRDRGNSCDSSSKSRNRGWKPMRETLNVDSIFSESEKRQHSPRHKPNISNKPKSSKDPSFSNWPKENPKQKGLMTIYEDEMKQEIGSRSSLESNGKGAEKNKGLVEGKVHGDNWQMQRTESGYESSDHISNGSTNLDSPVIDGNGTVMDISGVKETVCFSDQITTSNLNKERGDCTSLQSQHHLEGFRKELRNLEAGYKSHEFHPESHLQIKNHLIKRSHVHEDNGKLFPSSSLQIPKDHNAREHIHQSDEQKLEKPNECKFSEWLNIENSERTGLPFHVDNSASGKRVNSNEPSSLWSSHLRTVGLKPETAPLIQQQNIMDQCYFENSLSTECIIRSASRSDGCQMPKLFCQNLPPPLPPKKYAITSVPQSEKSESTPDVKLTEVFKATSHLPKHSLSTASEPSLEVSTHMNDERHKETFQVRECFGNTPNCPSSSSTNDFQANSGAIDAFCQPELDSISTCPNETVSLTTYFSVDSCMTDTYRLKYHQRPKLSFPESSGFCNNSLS
As to the kind of experiment: pull-down; about 100 µg GST-HA-USP53 (or GST-HA) on 50 µL glutathione agarose, 3 washes with PBST, about 100 µg Flag-CYCS fusion protein added, overnight at 4 °C; eluted with 10 mM glutathione in PBS pH 8.0, immunoblot. The note with it: both partners purified. On the technique in general: Immunoblotting shows a protein as a band on a membrane.

B1: GST-HA-CYCS (natural protein)
chain: not shown
notes: cytochrome c (CYCS); plasmid provided by …; also called GST-HA-CYCS fusion protein; source: purified (same method as for GST-HA-USP53: E. coli)
As to B1, the binding result in assay [1] was “binds”.

B2: Flag-CYCS (natural protein)
chain: not shown
notes: cytochrome c (CYCS); plasmid provided by …; also called Flag-CYCS fusion protein; source: E. coli (plasmid transfected into E. coli)
For the molecule B2, the binding result in assay [2] is “binds”.
